Results: patent publication US20140335146A1

Legend:
[1] = target: collagen-exposing bone material of epiphysis (rat femur, 0.6 N hydrochloric acid for 18 hours) (rat (Wistar)); experiment: depletion from supernatant, SDS-PAGE of supernatant (FIG. 3B)
[2] = target: collagen-exposing bone material of diaphysis (rat femur, 0.6 N hydrochloric acid for 18 hours) (rat (Wistar)); experiment: depletion from supernatant, SDS-PAGE of supernatant (FIG. 4B)

With bFGF-PKD-CBD fusion protein the amount of bone material at which the fusion protein (1.16 nmol) in the supernatant nearly disappeared [1] was 40 mg and the amount of bone material at which the fusion protein (1.16 nmol) in the supernatant nearly disappeared [2] was 80 mg.
